The text below walks through data of patent publication US8722043B2, “Induction of p53 expression by neutralization of neuropilin-2 for the treatment of cancers” (Diaclone, priority 2008, dated 2014).

One data set has as its system HT29-NRP-2 cells. Nature of the data set: Annexin V-APC apoptosis test. It counts as cell-based, human. The method, then: In order to determine the ability of the ITAC-B1 antibody to induce apoptosis of tumour cells expressing NRP-2, an in vitro Annexin V-APC apoptosis test was carried out (BD Pharmingen, San Diego, Calif.). This test is based on the externalization of phosphatidylserin by apoptotic cells and on the binding of Annexin V-APC to this molecule.
1 ml of DMEM medium containing 10% of inactivated FCS and 100 000 HT29-NRP-2 cells or 100 000 HT29ctrl cells were seeded, per well, into a 24-well Nunc plate. […] In parallel, “cells alone” controls were carried out, as were negative controls (anti-human mouse IgG1 antibody (BZ1) at the same concentrations as the ITAC-B1 antibody).
[…] When the cells began to detach, 500 μl of DMEM medium-10% FCS were added per well. The cells were then centrifuged, washed twice in PBS, and then taken up in 300 μl of 1× binding buffer (provided in the kit), and then 5 μl of Annexin V-APC were subsequently added to 100 μl of this solution.
The panels of FIG. 13 are point-cloud representations of the flow cytometry analysis. For each of the panels, the fluorescence intensity (corresponding to the labelling of the cells with Annexin V-APC) is represented on the x-axis. The y-axis indicates the granulosity of the cells (Side Scatter or SSC). […] The percentage of cells labelled with Annexin V-APC (corresponding to the percentage of cells having entered into apoptosis) is indicated at the bottom-right of each panel.
The apoptosis induced was then measured by labelling with Annexin V-APC as described above.
The panels of FIG. 15 are point-cloud representations of the flow cytometry analysis. For each of the panels, the fluorescence intensity (corresponding to the labelling of the cells with Annexin V-APC) is represented on the x-axis. The y-axis indicates the granulosity (side scatter) of the cells. The conditions of treatment with the antibodies and the Avastin® are indicated to the left of the panels. The percentage of cells labelled with the Annexin V-APC, corresponding to the percentage of cells having entered into apoptosis, is indicated at the top-right of each panel.

For data set [1], the target named is T1, human neuropilin-2 at the membrane surface (HT29-NRP-2, P815-NRP-2 cells) (Homo sapiens, UniProt O60462).
T1 construct: expressed in transfected cells; host or cells: HT29 (human colorectal cancer) and P815 (murine mastocytoma) cells, G418-selected
T1 sequence (O60462 21-931): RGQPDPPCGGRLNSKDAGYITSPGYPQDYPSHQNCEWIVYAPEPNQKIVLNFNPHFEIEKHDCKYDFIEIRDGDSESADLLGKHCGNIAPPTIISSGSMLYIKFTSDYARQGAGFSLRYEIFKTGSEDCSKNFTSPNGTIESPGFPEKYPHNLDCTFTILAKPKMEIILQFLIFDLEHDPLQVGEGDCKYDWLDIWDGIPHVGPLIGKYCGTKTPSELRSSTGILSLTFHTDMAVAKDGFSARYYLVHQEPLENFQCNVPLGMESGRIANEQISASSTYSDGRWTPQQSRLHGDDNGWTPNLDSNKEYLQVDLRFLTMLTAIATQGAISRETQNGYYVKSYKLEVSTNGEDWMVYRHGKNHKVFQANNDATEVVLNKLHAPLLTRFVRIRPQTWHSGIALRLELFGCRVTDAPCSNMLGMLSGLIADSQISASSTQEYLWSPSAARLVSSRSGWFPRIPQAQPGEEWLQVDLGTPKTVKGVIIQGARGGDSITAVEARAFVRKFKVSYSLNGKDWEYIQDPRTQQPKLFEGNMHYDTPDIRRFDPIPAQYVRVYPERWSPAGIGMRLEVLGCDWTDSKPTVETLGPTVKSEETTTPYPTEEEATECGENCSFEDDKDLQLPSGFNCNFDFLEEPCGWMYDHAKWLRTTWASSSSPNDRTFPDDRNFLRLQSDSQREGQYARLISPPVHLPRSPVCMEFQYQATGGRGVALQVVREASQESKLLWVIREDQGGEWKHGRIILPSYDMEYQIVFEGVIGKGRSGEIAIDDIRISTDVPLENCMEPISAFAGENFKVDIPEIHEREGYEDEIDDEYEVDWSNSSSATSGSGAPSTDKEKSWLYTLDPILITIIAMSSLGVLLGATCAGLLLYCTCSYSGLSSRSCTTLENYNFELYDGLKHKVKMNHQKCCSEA
Nature of the data set: Flow cytometry membrane labelling of cells expressing or not expressing NRP-2. It counts as binding. The conditions noted are these: 5 μg/ml antibody, 15 minutes at 4° C.; HT29, HT29-NRP-2, P815, P815-NRP-2 cells. As to the method: The ITAC-B1 clone was deposited, according to the Treaty of Budapest, with the CNCM (Collection Nationale des Microorganismes [French National Microorganism Collection], Institut Pasteur, 25 rue du Docteur Roux, 75724 Paris Cedex 15, France) on 30 Jul. 2008 under the deposit number CNCM 1-4054. In order to characterize the ITAC-B1 and ITAC-B2 monoclonal antibodies, membrane labelling was carried out by flow cytometry by bringing 200 000 HT29, HT29-NRP-2, P815 or P815-NRP-2 cells into contact with 5 μg/ml of ITAC-B1 or of ITAC-B2, for 15 minutes at 4° C. A goat anti-mouse secondary antibody coupled to FITC was then incubated for 15 minutes in the dark, at 4° C., before reading by flow cytometry. The results of the flow cytometry analysis obtained for ITAC-B1 are represented in FIG. 2.
For each of the panels of FIG. 2, the number of events (number of cells) is indicated on a y-axis, the fluorescence intensity (corresponding to the labelling of the cells with the ITAC-B1 antibody) is represented on the x-axis. Panels A and C (P815+ITAC-B1 and HT29ctrl+ITAC-B1) of FIG. 2 represent the results obtained by flow cytometry with the control cells, while panels B and D (P815-NRP-2+ITAC-B1 and HT29-NRP-2+ITAC-B1) represent the results obtained with cells expressing NRP-2 at their membrane surface. […]

B1: ITAC-B1: anti-human neuropilin-2 murine monoclonal antibody, VH SEQ ID No. 2, VL SEQ ID No. 4, produced by hybridoma CNCM 1-4054 (antibody, listed as Mus musculus, V domains shown)
VH: EVKLQESGAELVKPGASVKLSCTVSGFNIKDTYIHWVIQRPEQGLEWLGRIDPANGNTKYDPKFQGKATITADTSSNTAYLQLSSLTSEDTAVYYCARWAVVGDYWGQGTTLTVSS
VL: YCDHPLYKFLHVSAGDRVTITCKASQSVSDDVAWYQQKPGQSPKLLIYSASNRYTGVPDRFTGSGYGTDFTFTISTVQPEDLAVYFCQQDYSSPTFGSGTKLELK
On to B1, for which the “apoptosis induced (Annexin V-APC labelling) as a function of concentration” value in the data set on HT29-NRP-2 cells (0.5, 1 and 5 μg/ml, 16 hours) was “dose-dependent”. In the data set on HT29-NRP-2 cells (16 hours incubation, 0.5, 1 and 5 μg/ml tested), the “dose at which apoptosis of cells expressing NRP-2 is induced” value was “greater than or equal to 1 μg/ml”. Besides, the “combined action with anticancer molecules (5-FU, irinotecan) on apoptosis” value in the data set on HT29-NRP-2 cells (FIG. 13) is reported as “synergy of action”. The “percentage of cells labelled with Annexin V-APC (apoptosis)” value is around 78.5% in the data set on HT29-NRP-2 cells (ITAC-B1 2.5 μg/ml jointly with 5-FU 10 μg/ml (FIG. 13)); around 51% in the data set on HT29-NRP-2 cells (ITAC-B1 2.5 μg/ml with irinotecan 10 μg/ml (FIG. 13)); around 80% in the data set on HT29-NRP-2 cells (ITAC-B1 5 μg/ml jointly with 5-FU 10 μg/ml (FIG. 13)); around 58% in the data set on HT29-NRP-2 cells (ITAC-B1 5 μg/ml with irinotecan 10 μg/ml (FIG. 13)); “approximately 58%” in the data set on HT29-NRP-2 cells (antibody 20 μg/ml, 6 hours, cells cultured with Avastin (bevacizumab) 50 μg/ml (FIG. 15)); around 51% with HT29-NRP-2 cells (antibody 20 μg/ml, 6 hours, without Avastin (FIG. 15)). The “ability to induce apoptosis of tumour cells expressing neuropilin-2 (selection of clones)” value with HT29-NRP-2 cells (selection criterion of the hybridoma clones) is given as “ability to induce apoptosis of tumour cells expressing neuropilin-2”. For the same molecule, in data set [1], the “labelling of cells expressing NRP-2 versus cells not expressing NRP-2” value is “specifically recognize the neuropilin-2 present at the membrane surface”.
